Results as given in the DeepSol protein solubility set.

Assay: soluble on expression in E. coli; label from the status in PepcDB or PDB records

| Sequence | soluble on expression in E. coli |
| --- | --- |
| MPDDKAVNGRRDFLRKTLTVIPAVTLAGYGVGHAMQTPAAEQDKPRERYQPRFFTNTEWAFVNAAVARLIPSDDNGPGAIEAGVPEFIDRQMETPYGHGALWYMQGPFVTDAAPEFGHQLKLVPRDIYRVGIAALERWSKANQGKPFAELEPSAQDDILQRLEAGQIDLQDLPAKLLFGQLLQNTHEGFFSDPQHGGNRGLVGWKLVGFPGARADFMDWADRGEKYPFPPVAISGERG | not soluble |
| MGHHHHHHSHMKYYRRALYDKFVHFYLVISDDGSSEAQLRGKMGGLVRKARKKISPDWPKEEQIHQLLQLFYGDWGFHCDPEDYFYARNLYLPYVFEHRQGMPVTLGAMVFYLAEALDLPIYPVNFPTQLILRAEVRDEVAFIDPWDGTYISQEKLQQLYEGAFGFGAKIQPEELDRADLSLLYSRFEQLAKNALIREEHNDMAYHYIKNLMITDAENPYHIRDRGLVLAQMGAYPSALKDLEFFVEHCPKDPTAAFIRTQLLELKGEINKDTFPLH | soluble |
| MDKLESNKKAPLYQQLYDAILNKVRSGEYQVGEKIPSEEQLMTIYGVSRVTVRNAIKQLVDENILIKRHGKGTFVSMPSYVESMTAGGSFTESGLKMNRKPTTKIISICLKKATGHVAEALGVEKATEVIVIERLRSLDNMPAIFEIDYFRKEDQFMLDLELTDTSLLDILRQYRGVIASYFDNIIEIALADEKLAEALAISEEEALVKINQTVVDNDNQILYFNEQYILSESYKVAIRSYNK | not soluble |
| AHHHHHHGSKIATIVGARPQFIKMAPVSRELRKYFEEVVIHTGQHYDYEMDRIFFEQLNIPEPDYNLGVGSGSHGYQIGEMLKKIEEVLIKEKPDLVMVFGDTNSTLAGALAAAKLKIKVAHVEAGLRSFDKSMPEEINRILTDHVSDYLFAPTETAVKNLYNEGIRNGVYLTGDVMLDALLYNVKIAERCSEILNKLGLKPKEFCLATVHRAENTDNLERLKNIIDAFVECKETIVFPVHPRTEKVLKAYGLYDSLKKAENVILIKPVGYLDMLMLEKNAKKILTDSGGVQKEAYFLKVPCITLRERTEWVETVEDGWNVLVGADKEKILRAVREFEPSGETYTYKFGDGRASEKIAEVIKNVDR | not soluble |
| MGSDKIHHHHHHMPSIFEKYHLKQVINTSGRMTALGVSTPRPEVVEAAMAGMNQYFEMKDLVNKTGEYIAKLLDVEGATVVSCASAGIAQSVAAVLVKDSDWLLENLHVTPIENNEIVLPKGHNVNFGAPVGTMVALGGGKLVEAGYANECSAQQLAAAITPRTAAILYIKSHHCVQKSMLNVAQAAEVARQHNVPLIVDAAAEEDLQCYYRMGADLVIYSGAKAIEGPTSGLVIGKTQYVEWVKRQSMGIGRAMKVGKEGILGLTCAIEHYLTASKESGQQMVAKMTPFIEQLNTLNGVTARVVWDSAGRDIARAEIKFDEATTGVKTGDLVNALKQGEYAIYFRGYKANEGIIEADVRSVNAQQLEVVARRIAEVLNKEKQA | not soluble |
| MAHHHHHHMIVLLRKNNLKNTLRLFPLGCNNKLVFMRGYINEQTKGPIEKKTTDNNEKMLLNKTLEDVKVSKENSCNALFDECLEELYRMKKKVDKESVEYDNSPIIEELNREELKITRNIFERINKKKKHVSNLSYKDIYIDPYWNPFKDVDNLKQEILYEFNEYSKMASIVELKKQRRAIKKSLKEQYKLYNPYSEEYNKHFNLNMDNDVKEQQMECHDKDEKYWNPSFNKRKILNIKSPFIWRYTHLLHHFIGENGLILPRKINMTTRKQQIQIFKSICIARRMALYPYDKKPEKDDLIPLMDPLQFLLDELIHRYIQLNDLRAQAIIKVMINRYPSLNYYKYFFYESKKEKDKNEKTAQNEQEENVSEKKEPFSQMLQKYKKNYYENFYKY | not soluble |
| MVRVDVEERFNRIARNTVEIVTEEELKGLLASGARIKGYIGYEPSGVAHIGWLVWMYKVKDLVEAGVDFSVLEATWHAYINDKLGGDMDLIRAAARIVRRVMEAAGVPVERVRFVDAEELASDKDYWGLVIRVAKRASLARVRRALTIMGRRAEEAEVDASKLIYPLMQVSDIFYMDLDIALGGMDQRKAHMLARDVAEKLGRKKPVAIHTPIISSLQGPGRMEASQGEIDDVLAEVKMSKSKPETAVFVVDSDDDIRRKIRKAYCPAKQVQGNPVLEIARYILFARDGFTLRVDRPAKYGGPVEYTSYEELERDYTDGRLHPLDLKNAVAESLIEVVRPIRGAVLGDPAMKRALEAIEGKVTR | soluble |
| QLTPTFYRETCPNLFPIVFGVIFDASFTDPRIGASLMRLHFHDCFVQGCDGSVLLNNTDTIESEQDALPNINSIRGLDVVNDIKTAVENSCPDTVSCADILAIAAEIASVLGGGPGWPVPLGRRDSLTANRTLANQNLPAPFFNLTQLKASFAVQGLNTLDLVTLSGGHTFGRARCSTFINRLYNFSNTGNPDPTLNTTYLEVLRARCPQNATGDNLTNLDLSTPDQFDNRYYSNLLQLNGLLQSDQELFSTPGADTIPIVNSFSSNQNTFFSNFRVSMIKMGNIGVLTGDEGEIRLQCNFVNG | soluble |
| MISVNKVFYAHSERFQMQNMNVHIKAGEVVSLIGPNGSGKSTLLRLMARLLKQSEGDIVLDGKSIHTMKSADVAKQLAMLPQMHDHQLDLTVKELIEFGRGPHKSWRGRLNKEDEEIVDWALSVTNLEGYEYRLLQSLSGGERQRAWIAMTLAQRTNVLLLDEPTTFLDIVHQLEVMELVKRLNEEFGMTIIMVLHDINQAAQYSDRLLVLKRGKLQYDGVPEEVLCHEMFQHIFGIEVDIFQGSEKPFFTPKRISKKGGAKCEQKNVLPLS | not soluble |
| MVIILAMTNREKFKVLADQIKISNQLEQDILEQGELTRIDVSNKNRTWTFQISLPHFLSHEDYLLFTHAIEEEFKEIATVAIDFSIKDTNNQDEFALKYFGHCIDQTRLSPKVKGQLKQKKLIMSGNVLKVLVSNDIERNHFDKACNGSLVKA | not soluble |
| PLQFHSVHGDNIRISRDGTLARRFESFCRAITFSARPVRINERICVKFAEISNNWNGGIRFGFTSNDPVTLEGTLPKYACPDLTNRPGFWAKALHEQYCEKDNILYYYVNGAGDVIYGINNEEKGVILTGIDTRSLLWTVIDIYGNCTGIEFLDSRIYMYQ | soluble |
| MGSDKIHHHHHHMKISIIGAGSVRFALQLVGDIAQTEELSREDTHIYMMDVHERRLNASYILARKYVEELNSPVKIVKTSSLDEAIDGADFIINTAYPYDPRYHDSGSQRWDEVTKVGEKHGYYRGIDSQELNMVSTYTYVLSSYPDMKLALEIAEKMKKMAPKAYLMQTANPVFEITQAVRRWTGANIVGFCHGVAGVYEVFEKLDLDPEEVDWQVAGVNHGIWLNRFRYRGEDAYPLLDEWIEKKLPEWEPKNPWDTQMSPAAMDMYKFYGMLPIGDTVRNGSWKYHYNLETKKKWFGKFGGIDNEVERPKFHEQLRRARERLIKLAEEVQQNPGMKLTEEHPEIFPKGKLSGEQHIPFINAIANNKRVRLFLNVENQGTLKDFPDDVVMELPVWVDCCGIHREKVEPDLTHRIKIFYLWPRILRMEWNLEAYISRDRKVLEEILIRDPRTKSYEQIVQVLDEIFNLPFNEELRRYYKEKL | soluble |
| VVPAQHRPPDRPGDPAHDPGRGRRLGIDVGAARIGVACSDPDAILATPVETVRRDRSGKHLRRLAALAAELEAVEVIVGLPRTLADRIGRSAQDAIELAEALARRVSPTPVRLADERLTTVSAQRSLRQAGVRASEQRAVIDQAAAVAILQSWLDERLAAMAGTQEGSDA | not soluble |
| GAQVSSQKVGAHENSNRAYGGSTINYTTINYYKDSASNAASKQDYSQDPSKFTEPLKDVLIKTAPALN | soluble |
| MALRWGIVSVGLISSDFTAVLQTLPRSEHQVVAVAARDLSRAKEFAQKHDIPKAYGSYEELAKDPNVEVAYVGTQHPQHKAAVMLCLAAGKAVLCEKPMGVNAAEVREMVTEARSRGLFLMEAIWTRFFPASEALRSVLAQGTLGDLRVARAEFGKNLTHVPRAVDWAQAGGALLDLGIYCVQFISMVFGGQKPEKISVMGRRHETGVDDTVTVLLQYPGEVHGSFTCSITAQLSNTASVSGTKGMAQLLNPCWCPTELVVKGEHKEFLLPPVPKNCNFDNGAGMSYEAKHVRECLRKGLKESPVIPLVESELLADILEEVRRAIGVTFPQDKH | soluble |
